Measurements taken from patent publication US9766245B2, “Method of detecting cancer based on glycan biomarkers” (California Institute of Technology, priority 2013, dated 2017).
“Also recorded” adds a separate entry of the source.

Tested on: glycosylated synapsin I
Experiment: Lectin affinity chromatography with UEAI
Assay type: binding, rat
Conditions: olfactory bulb lysate (500 μg), Western blotting
Procedure: Lectin Affinity Chromatography with UEAI.
UEAI lectin conjugated to agarose (Vector Laboratories) or control protein A conjugated to agarose (Vector Laboratories) was packed into a minicolumn (50 μL bed volume; Bio-Rad), and the columns were run in parallel. The resin was equilibrated with 10 column volumes of lectin binding buffer (100 mM Tris pH 7.5, 150 mM NaCl, 1 mM CaCl2, 1 mM MgCl2, 0.5% NP-40, and 0.2% sodium deoxycholate supplemented with EDTA-free Complete™ protease inhibitors). Olfactory bulb tissue from P3 rat pups was lysed in lectin binding buffer by sonication on ice. The lysate was clarified by centrifugation at 12000×g for 10 min, and the total protein concentration was determined using the BCA protein assay (Pierce). Lysate (500 μg) was bound batch-wise with gentle end-over-end mixing at rt for 4 h. The agarose was then allowed to settle, and the flow-through was passed over the column three additional times. The columns were washed with 40 column volumes of lectin binding buffer, followed by 10 column volumes of lectin binding buffer lacking detergent. […] Following concentration, samples were boiled in 1× sample buffer (35 μL of 200 mM Tris pH 6.8, 400 mM DTT, 8% SDS, 0.2% bromophenol blue, and 40% glycerol) and analyzed by SDS-PAGE and western blotting as described above. Synapsin I was detected using mouse anti-synapsin I ascites (Synaptic Systems) at 0.1 μg/mL.

B1: UEAI: lectin conjugated to agarose used for affinity chromatography (protein)
chain: SDDLSFKFKNFSQNGKDLSFQGDASVIETGVLQLNKVGNNLPDETGGIARYIAPIHIWNCNTGEVASFITSFSFFMETSANPKAATDGLTFFLAPPDSPLRRAGGYFGLFEDTKDNDSSYQTVAVEFDTIGSPVNFDDPGFPHIGIDVNRVKSINAERWNKRYGLNNVANVEIIYEASSKTLTASLTYPSDQTSISVTSIVDLKEILPEWVSVGFSGGTYIGRQATHEVLNWYFTSNLINTNS
capture and detection of glycosylated synapsin I: failed to pull-down and detect glycosylated synapsin I; also recorded: failed to capture and detect glycosylated synapsin I
